# Test results published in article PMC10899256 (2024).
# B1: LKB1 LFa peptide WT [human] / purified TBC1D23 PH domain (545–684) [human] (parent complex)
# chain 1: GADEDEDLFDIEDDIIYTQD
# chain 2: YDTDEIDSSSMSDDDRKEVVNIQTWINKPDVKHHFPCKEVKESGHMFPSHLLVTATHMYCLREIVSRKGLAYIQSRQALNSVVKITSKKKHPELITFKYGNSSASGIEILAIERYLIPNAGDATKAIKQQIMKVLDALES
# Variants of: B1
# Assay: ITC; read off a plot
row,Ka,Variant
1,~4.6 10^4 M^-1,chain 1 F9L
2,~5 10^4 M^-1,chain 1 F9A
